Data on 1 protein can be found in article PMC8378251, “Biochemical and Structural Characterisation of a Novel D-Lyxose Isomerase From the Hyperthermophilic Archaeon Thermofilum sp” (Frontiers in Bioengineering and Biotechnology, 2021).

The term stoichiometry N denotes a count of units in the complex or per binding partner.

The data set concerns the molecule itself. Briefly: SEC; calibrated Superdex 200 pg HiLoad 16/600, 25 mM Tris-HCl pH 8.0, 150 mM NaCl, 1.0 ml/min; apparent molecular mass ~46 kDa. A general note: In gel filtration, larger molecules generally elute earlier.

B1: D-lyxose isomerase from Thermofilum sp. (TsLI) (enzyme, Thermofilum sp. ex4484_79)
chain: MLTKELVKEAREKAIRMLEKACIAITDEEKEKIEVTDFGLGVLYTFGLEILVYVNNERYCAKELVMFPRQICPEHRHPPIGSYLGKQETFRCRWGEVYLYVPGTPTPNPRARIPEEKKRYFTVWHEIVLRPGEQYTIPPNTLHWFQAGDEGAIVSEFSSQSIDEKDIFTDPNVKRIPEIV
notes: locus tag B6U94_07925; synthetic gene cloned into pET19b; subunit about 23 kDa; Homodimer; in the crystal the two monomers are joined by a disulfide bond between C22 of each subunit; No removal of the His tag is described; also called T. sp; LI; source: E. coli Rosetta (DE3) pLysS, purified (heat precipitation at 75°C, Ni-NTA, SEC)
As to B1, the “stoichiometry N” value was 2.
